Test results: the RNAGym collection of RNA variant scans (doi:10.1093/molbev/msab373)

B1: Azoarcus group I ribozyme (parent)
chain: GUGCCUUGCGCCGGGAAACCACGCAAGGGAUGGUGUCAAAUUCGGCGAAACCUAAGCGCCCGCCCGGGCGUAUGGCAACGCCGAGCCAAGCUUCGGCGCCUGCGCCGAUGAAGGUGUAGAGACUAGACGGCACCCACCUAAGGCAAACGCUAUGGUGAAGGCAUAGUCCAGGGAGUGGCGAAAGUCACACAAACCGG

Variants of: B1
Assay: reverse-splicing fitness (ratio to wild type); higher = more active; in vitro selection; Mg2+ level not given
In short: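 An in vitro group I ribozyme library with randomized positions was T7-transcribed and gel-purified. In triplicate, 10 pmol RNA in EPPS pH 7.5 was reacted with 50 pmoles of a 30-nt RNA substrate for 1 h at 37 °C across several added MgCl2 levels (1–48 mM), then stopped with EDTA. Products were reverse transcribed from a substrate-complementary primer, PCR-amplified and sequenced (HiSeq 4000). Fitness is a variant's read proportion after selection over that before, normalised to wild type.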

Going from GUGCCUUGCGCCGGGAAACCACGCAAGGGAUGGUGUCAAAUUCGGCGAAACCUAAGCGCCCGCCCGGGCGUAUGGCAACGCUGAGCCAAGCUUCGGCGCCUGCGCCGAUGUAGGUGUAGCGACUAGACGGCACCCACCUAAGGCAAACGGUAUGGUGAAGGCAUAGUCAAGGGAGGGGCGAAAGUCACACAAACCGG [C82U A111U A120C C150G C169A U176G] to GUGCCUUGCGCCGGGAAACCACGCAAGGGAUGGUGUCAAAUUCGGCGAAACCUAAGCGCCCGCCCGGGCGUAUGGCAACGCUGAGCCAAGCUUCGGCGCCUGCGCCGAUGUAGGUGUAGCGACUAGACGGCACCCACCUAAGGCAAACGGUAUGGUGAAGGCAUAGUCAAGGGAGAGGCGAAAGUCACACAAACCGG [C82U A111U A120C C150G C169A U176A], the reverse-splicing fitness rises from 0.00603 to 0.0105.

Going from GUGCCUUGCGCCGGGAAACCACGCAAGGGAUGGUGUCAAAUUCGGCGAAACCUAAGCGCCCGCCCGGGCGUAUGGCAACGCUGAGCCAAGCUUCGGCGCCUGCGCCGAUGUAGGUGUAGCGACUAGACGGCACCCACCUAAGGCAAACGGUAUGGUGAAGGCAUAGUCAAGGGAGCGGCGAAAGUCACACAAACCGG [C82U A111U A120C C150G C169A U176C] to GUGCCUUGCGCCGGGAAACCACGCAAGGGAUGGUGUCAAAUUCGGCGAAACCUAAGCGCCCGCCCGGGCGUAUGGCAACGCUGAGCCAAGCUUCGGCGCCUGCGCCGAUGUAGGUGUAGCGACUAGACGGCACCCACCUAAGGCAAACGAUAUGGUGAAGGCAUAGUCAAGGGAGCGGCGAAAGUCACACAAACCGG [C82U A111U A120C C150A C169A U176C], the reverse-splicing fitness rises from 0.0101 to 0.0182.

Going from GUGCCUUGCGCCGGGAAACCACGCAAGGGAUGGUGUCAAAUUCGGCGAAACCUAAGCGCCCGCCCGGGCGUAUGGCAACGCUGAGCCAAGCUUCGGCGCCUGCGCCGAUGUAGGUGUAGCGACUAGACGGCACCCACCUAAGGCAAACGAUAUGGUGAAGGCAUAGUCAAGGGAGGGGCGAAAGUCACACAAACCGG [C82U A111U A120C C150A C169A U176G] to GUGCCUUGCGCCGGGAAACCACGCAAGGGAUGGUGUCAAAUUCGGCGAAACCUAAGCGCCCGCCCGGGCGUAUGGCAACGCUGAGCCAAGCUUCGGCGCCUGCGCCGAUGUAGGUGUAGCGACUAGACGGCACCCACCUAAGGCAAACGGUAUGGUGAAGGCAUAGUCCAGGGAGUGGCGAAAGUCACACAAACCGG [C82U A111U A120C C150G], the reverse-splicing fitness rises from 0.00592 to 0.00758.

First: GUGCCUUGCGCCGGGAAACCACGCAAGGGAUGGUGUCAAAUUCGGCGAAACCUAAGCGCCCGCCCGGGCGUAUGGCAACGCUGAGCCAAGCUUCGGCGCCUGCGCCGAUGUAGGUGUAGCGACUAGACGGCACCCACCUAAGGCAAACGUUAUGGUGAAGGCAUAGUCCAGGGAGUGGCGAAAGUCACACAAACCGG [C82U A111U A120C C150U]
Second: GUGCCUUGCGCCGGGAAACCACGCAAGGGAUGGUGUCAAAUUCGGCGAAACCUAAGCGCCCGCCCGGGCGUAUGGCAACGCUGAGCCAAGCUUCGGCGCCUGCGCCGAUGUAGGUGUAGCGACUAGACGGCACCCACCUAAGGCAAACGAUAUGGUGAAGGCAUAGUCCAGGGAGCGGCGAAAGUCACACAAACCGG [C82U A111U A120C C150A U176C]
The reverse-splicing fitness of the first is lower: 0.0179 for the first, 0.0189 for the second.

Going from GUGCCUUGCGCCGGGAAACCACGCAAGGGAUGGUGUCAAAUUCGGCGAAACCUAAGCGCCCGCCCGGGCGUAUGGCAACGCUGAGCCAAGCUUCGGCGCCUGCGCCGAUGUAGGUGUAGCGACUAGACGGCACCCACCUAAGGCAAACGAUAUGGUGAAGGCAUAGUCCAGGGAGGGGCGAAAGUCACACAAACCGG [C82U A111U A120C C150A U176G] to GUGCCUUGCGCCGGGAAACCACGCAAGGGAUGGUGUCAAAUUCGGCGAAACCUAAGCGCCCGCCCGGGCGUAUGGCAACGCUGAGCCAAGCUUCGGCGCCUGCGCCGAUGUAGGUGUAGCGACUAGACGGCACCCACCUAAGGCAAACGAUAUGGUGAAGGCAUAGUCCAGGGAGAGGCGAAAGUCACACAAACCGG [C82U A111U A120C C150A U176A], the reverse-splicing fitness rises from 0.0056 to 0.0126.

Compared with GUGCCUUGCGCCGGGAAACCACGCAAGGGAUGGUGUCAAAUUCGGCGAAACCUAAGCGCCCGCCCGGGCGUAUGGCAACGCUGAGCCAAGCUUCGGCGCCUGCGCCGAUGUAGGUGUAGCGACUAGACGGCACCCACCUAAGGCAAACGAUAUGGUGAAGGCAUAGUCGAGGGAGCGGCGAAAGUCACACAAACCGG [C82U A111U A120C C150A C169G U176C], GUGCCUUGCGCCGGGAAACCACGCAAGGGAUGGUGUCAAAUUCGGCGAAACCUAAGCGCCCGCCCGGGCGUAUGGCAACGCUGAGCCAAGCUUCGGCGCCUGCGCCGAUGUAGGUGUAGCGACUAGACGGCACCCACCUAAGGCAAACGAUAUGGUGAAGGCAUAGUCGAGGGAGAGGCGAAAGUCACACAAACCGG [C82U A111U A120C C150A C169G U176A] is lower in reverse-splicing fitness: 0.0181 for the first, 0.0178 for the second.

First: GUGCCUUGCGCCGGGAAACCACGCAAGGGAUGGUGUCAAAUUCGGCGAAACCUAAGCGCCCGCCCGGGCGUAUGGCAACGCUGAGCCAAGCUUCGGCGCCUGCGCCGAUGUAGGUGUAGCGACUAGACGGCACCCACCUAAGGCAAACGAUAUGGUGAAGGCAUAGUCGAGGGAGGGGCGAAAGUCACACAAACCGG [C82U A111U A120C C150A C169G U176G]
Second: GUGCCUUGCGCCGGGAAACCACGCAAGGGAUGGUGUCAAAUUCGGCGAAACCUAAGCGCCCGCCCGGGCGUAUGGCAACGCUGAGCCAAGCUUCGGCGCCUGCGCCGAUGUAGGUGUAGCGACUAGACGGCACCCACCUAAGGCAAACGGUAUGGUGAAGGCAUAGUCGAGGGAGCGGCGAAAGUCACACAAACCGG [C82U A111U A120C C150G C169G U176C]
The reverse-splicing fitness of the first is higher: 0.00669 for the first, 0.00458 for the second.

Work on GUGCCUUGCGCCGGGAAACCACGCAAGGGAUGGUGUCAAAUUCGGCGAAACCUAAGCGCCCGCCCGGGCGUAUGGCAACGCUGAGCCAAGCUUCGGCGCCUGCGCCGAUGUAGGUGUAGCGACUAGACGGCACCCACCUAAGGCAAACGGUAUGGUGAAGGCAUAGUCGAGGGAGGGGCGAAAGUCACACAAACCGG [C82U A111U A120C C150G C169G U176G] yielded a reverse-splicing fitness of 0.00402.
